From US20230416410A1 (ZOETIS SERVICES, published 2023) come the findings set out here.

The Kd is the concentration at which binding is half-saturated.

Experiment [1] concerns the target T1, CTLA4bG2b (canine; bovine, UniProt Q9XSI1 36-161, limits assumed).
T1 construct: No linker; also called bIgG2b wildtype (CTLA4 fusion); CTLA4 Fc bIgG2b wildtype
T1 sequence: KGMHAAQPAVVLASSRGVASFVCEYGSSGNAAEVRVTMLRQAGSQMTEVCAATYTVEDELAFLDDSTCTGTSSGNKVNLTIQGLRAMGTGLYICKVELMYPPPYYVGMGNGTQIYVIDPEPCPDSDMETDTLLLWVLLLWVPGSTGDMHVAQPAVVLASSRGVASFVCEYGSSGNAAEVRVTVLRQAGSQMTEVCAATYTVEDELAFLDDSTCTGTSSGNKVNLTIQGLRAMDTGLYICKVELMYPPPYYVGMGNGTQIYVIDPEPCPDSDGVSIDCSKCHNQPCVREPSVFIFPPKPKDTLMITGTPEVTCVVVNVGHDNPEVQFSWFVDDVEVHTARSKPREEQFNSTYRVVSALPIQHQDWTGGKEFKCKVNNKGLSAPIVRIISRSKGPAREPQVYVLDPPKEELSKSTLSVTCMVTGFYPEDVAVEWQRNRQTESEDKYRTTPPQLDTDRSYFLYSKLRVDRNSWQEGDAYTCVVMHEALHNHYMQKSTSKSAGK
The experiment in a line: SPR Biacore, bFcg2R amine-coupled on CM5, pH 7.4, 15 C. (In general: In SPR one partner is held on a chip, and binding of the other changes the refractive index at the surface.)

Experiment [2] deals with T2, CTLA4bG2a (canine; bovine, UniProt Q9XSI1 36-161, limits assumed).
T2 construct: No linker; also called bIgG2a wildtype (CTLA4 fusion); CTLA4 Fc bIgG2a wildtype
The description is as above.

Experiment [3] addresses complement component C1q (in bovine complement preserved serum) (bovine, UniProt Q5E9E3 23-244; Q2KIV9 23-247). The experiment in a line: cell-based or functional assay.
Experiment [4] has as its target T3, recombinant bovine FcgR3 (bovine, UniProt P79107 17-208, limits assumed, biotin on the BAP tag (BirA)).
T3 construct: also called bFcgR3; bFcgRIII
T3 sequence: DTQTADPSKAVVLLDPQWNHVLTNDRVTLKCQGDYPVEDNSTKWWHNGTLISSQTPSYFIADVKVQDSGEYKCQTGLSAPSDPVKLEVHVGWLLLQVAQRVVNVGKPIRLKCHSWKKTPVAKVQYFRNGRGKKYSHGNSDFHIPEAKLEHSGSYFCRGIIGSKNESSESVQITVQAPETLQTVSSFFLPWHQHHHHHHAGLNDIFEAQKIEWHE
The experiment in a line: SPR Biacore, biotinylated receptor on SA sensor, pH 7.4, 15 C. The procedure:
(§1) A Biacore SPR binding assay was designed to test the affinity of bovine IgG subclasses to bFcgR1, bFcgR2 and bFcgR3. All reported KD's were measured by Biacore (Cytiva, Marlborough, MA, USA) using series S SA sensor. Biotinylated-bovine FcgR1, R2 and R3 were captured on the sensor surface using a modified SA capture method to reach the desired surface density. 10 mM HEPES, 150 mM NaCl, 3 mM EDTA, 0.05% v/v surfactant P20, pH7.4 buffer was used as the running and titration buffer. Various concentrations of bovine CTLA4-Fc fusions or mAbs were titrated and flowed over the receptor surface and affinities were determined using Biacore T200 Evaluation software (Cytiva, Marlborough, MA, USA) with 1:1 binding model. The method of double referencing has been applied where the reference flow cell was subtracted from the flow cell containing immobilized receptors and blank runs containing buffer only were subtracted out from all runs. Flow cells were regenerated using 10 mM Glycine pH1.5. Runs were performed at 15° C.
(§2) Biacore methods for bFcgR1, R2, and R3 were performed as described in Examples above. […] Although the two allotypes have different KDs for bFcgR2 and bFcgR3, both wildtype allotypes do bind. All of the mutations, bIgG3Win, bIgG3WinSAS, bIgG3SAS and bIgG3SAP for both the a and b allotypes knocked down binding to bFcgR1, bFcgR2 and bFcgR3 to negligible affinities. Thus, for knocking out receptor binding, the two allotypes compare similarly.

Experiment [5] deals with T4, recombinant bovine FcgR1 (bovine, biotin on the BAP tag (BirA)).
T4 construct: also called bFcgR1; bFcgRI
The experiment is described as above. The procedure:
as §1, §2

Experiment [6] addresses T5, recombinant bovine FcgR2 (bovine, UniProt Q28110 43-225, limits assumed, biotin on the BAP tag (BirA)).
T5 construct: also called bFcgR2; bFcgRII
T5 sequence: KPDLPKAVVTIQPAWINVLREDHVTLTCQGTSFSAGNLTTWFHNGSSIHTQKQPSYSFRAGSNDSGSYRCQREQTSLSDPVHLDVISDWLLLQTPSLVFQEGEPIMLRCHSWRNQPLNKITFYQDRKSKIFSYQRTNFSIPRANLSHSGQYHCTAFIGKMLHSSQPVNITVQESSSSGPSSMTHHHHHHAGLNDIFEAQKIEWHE
The experiment is described as above. The procedure: as §1, §2

Chain of complement component C1q (in bovine complement preserved serum) (Q5E9E3 23-244, chain 1 of 2): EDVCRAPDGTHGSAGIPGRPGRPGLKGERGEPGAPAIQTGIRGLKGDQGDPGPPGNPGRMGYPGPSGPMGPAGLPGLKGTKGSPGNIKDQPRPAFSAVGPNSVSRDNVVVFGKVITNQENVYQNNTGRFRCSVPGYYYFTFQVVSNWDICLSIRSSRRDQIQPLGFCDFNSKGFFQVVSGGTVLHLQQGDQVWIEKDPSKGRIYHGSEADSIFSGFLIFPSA
Chain of complement component C1q (in bovine complement preserved serum) (Q2KIV9 23-247, chain 2 of 2): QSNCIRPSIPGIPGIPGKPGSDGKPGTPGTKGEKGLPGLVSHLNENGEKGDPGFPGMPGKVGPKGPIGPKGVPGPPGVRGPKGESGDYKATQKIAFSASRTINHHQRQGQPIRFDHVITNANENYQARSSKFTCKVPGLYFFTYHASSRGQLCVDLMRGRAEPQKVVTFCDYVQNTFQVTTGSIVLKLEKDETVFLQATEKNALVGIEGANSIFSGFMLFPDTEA

B1: recombinant bovine Fcg2R (receptor)
chain: GTFPKPIIWAEPSSVVPLGSSVTILCQGPPNTKSFSLNKEGDSTPWNIHPSLEPWDKANFFISNVREQQAGRYHCSHFIGVNWSEPSEPLDLLVAGEEPAGRLRDRPSLSVRPSPSVAPGENVTLLCQSGNRTDTFLLSKEGAAHRPLRLRSQDQDGWYQAEFSLSPVTSAHGGTYRCYRSLSTNPYLLSQPSEPLALLVADYTMQNLIRMGLAASVLLLLGILLCQARHDHGGAREAARS
modifications: biotin on the BAP tag (BirA)
As to B1, the figures for the Kd in experiment [1] and in experiment [2] were 31.4 nM and 41.7 nM, respectively.

B2: CTLA4 Fc bIgG3b (Fc fusion)
chain: DMHVAQPAVVLASSRGVASFVCEYGSSGNAAEVRVTVLRQAGSQMTEVCAATYTVEDELAFLDDSTCTGTSSGNKVNLTIQGLRAMDTGLYICKVELMYPPPYYVGMGNGTQIYVIDPEPCPDSDTARRPVPTTPKTTIPPGKPTTQESEVEKTPCQCSKCPEPLGGLSVFIFPPKPKDTLTISGTPEVTCVVVDVGQDDPEVQFSWFVDDVEVHTARTKPREEQFNSTYRVVSALRIQHQDWLQGKEFKCKVNNKGLPAPIVRTISRTKGQAREPQVYVLAPPREELSKSTLSLTCLITGFYPEEIDVEWQRNGQPESEDKYHTTAPQLDADGSYFLYSRLRVNKSSWQEGDHYTCAVMHEALRNHYKEKSISRSPGK
notes: No linker; also called bIgG3b wildtype; CTLA4 Fc bIgG3b wildtype
B2: the “CDC EC50 Value” in experiment [3] was determined as 0.028 µg/mL. Also, the Kd in experiment [4] was determined as 49.6 nM; in experiment [5], 12.5 nM; in experiment [6], 706 nM.
